Source: patent publication US20170258948A1 (Bristol-Myers Squibb, published 2017)

Experiments:
[1] = molecular target: T1, human PD-L1 expressed on cells (hPD-L1-positive L2987 human lung carcinoma cells); L2987 xenograft and human … (human, UniProt Q9NZQ7 19-290); experiment: radiotracer binding to cells on ice, gamma counting
T1 construct: whole, on cells; also called hPD-L1(+) L2987; PD-L1 positive cells L2987
Description: After the incubation period, cell samples were centrifuged at 200×g and the supernatant was discarded. Cell pellets were resuspended in 1 mL PBS+0.5% BSA and the wash procedure repeated for a total of 3 washes. Following the final wash, cells were again centrifuged at 200×g and the supernatant was discarded. The radioactivity of the remaining cell pellets was then measured by gamma counter.

[2] = molecular target: T2, human PD-L1 (Programmed Death Ligand-1), protein used in Biacore and ELISA (human, UniProt Q9NZQ7 19-239); experiment: SPR (Biacore), human PD-L1
T2 construct: also called hPD-L1; CD274

[3] = molecular target: T2, human PD-L1 (Programmed Death …); experiment: summary sentence on the binding data (Biacore); limit tied to A02 by Table 2
[4] = molecular target: T1, human PD-L1 expressed on cells …; experiment: cell binding to human PD-L1 positive L2987 cells; Cys-capped form; Cys-capped form
[5] = molecular target: T1, human PD-L1 expressed on cells …; experiment: cell-based or functional assay
[6] = molecular target: T2, human PD-L1 (Programmed Death …); experiment: method not stated (Table 1, binding properties of anti-PD-L1 Adnectins)
[7] = molecular target: T2, human PD-L1 (Programmed Death …); experiment: ELISA, inhibition of binding of human CD80 (B7-1) to human PD-L1
cyno PD-L1 = molecular target: T3, cyno PD-L1 (cyno (cynomolgus monkey), UniProt G7PSE7 19-239); experiment: SPR (Biacore), cyno PD-L1
T3 construct: also called cynomolgus PD-L1

[8] = molecular target: T2, human PD-L1 (Programmed Death …); experiment: summary sentence on the binding data (Biacore); limit tied to E01 by Table 2

T1 sequence (Q9NZQ7 19-290): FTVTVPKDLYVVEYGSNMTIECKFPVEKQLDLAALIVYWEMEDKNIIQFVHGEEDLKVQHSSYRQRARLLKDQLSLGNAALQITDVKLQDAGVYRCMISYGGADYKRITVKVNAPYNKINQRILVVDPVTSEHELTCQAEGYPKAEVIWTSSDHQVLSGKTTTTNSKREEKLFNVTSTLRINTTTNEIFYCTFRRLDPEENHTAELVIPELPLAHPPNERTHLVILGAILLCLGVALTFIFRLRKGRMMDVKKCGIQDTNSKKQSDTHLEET
T3 sequence (G7PSE7 entry or part of it): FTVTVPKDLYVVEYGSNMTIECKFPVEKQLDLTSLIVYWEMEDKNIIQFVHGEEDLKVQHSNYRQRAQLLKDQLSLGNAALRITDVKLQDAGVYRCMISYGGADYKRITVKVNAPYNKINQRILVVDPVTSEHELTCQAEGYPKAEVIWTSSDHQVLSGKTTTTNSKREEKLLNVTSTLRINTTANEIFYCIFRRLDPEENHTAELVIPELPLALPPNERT
T2 sequence (Q9NZQ7 19-239 limits assumed): as the sequence (G7PSE7 entry or part of it) above, with T33A, S34A, N62S, Q68R, R82Q, L173F, A185T, I192T, L215H counted along it

B1: ^64Cu-E01-NODAGA (designed binder)
chain: GVSDVPRDLEVVAATPTSLLISWRAQLSPSFYYRITYGETGGNSPVQEFTVPNDVMTATISGLKPGVDYTITVYAVTTHGVYFYSPISINYRTPC
modifications: C-terminal cysteine (of the added PC) linked to maleimide-NODAGA chelating ^64Cu
notes: Modified E01 (ADX_5417_E01 with N leader and C-terminal PC); also called ^64Cu-E01 anti-PD-L1 Adnectin
[1]
  fold higher cell associated radioactivity against hPD-L1-negative HT-29 cells: 44.6 fold

B2: ADX_5322_A02 (designed binder)
chain: MGVSDVPRDLEVVAATPTSLLISWSYDGPIDRYYRITYGETGGNSPVQEFTVPPDQKTATISGLKPGVDYTITVYAVRLEEAHYNREFPISINYRTPCHHHHHH
[2]
  Kd: 228 pM
  koff: 0.00057 s⁻¹
  kon: 2.5e+06 M⁻¹ s⁻¹
[3]
  Kd: < 1000 pM

B3: ADX_5322_A02 (Cys-Capped) (designed binder)
chain: B2 chain
modifications: Cys-Capped (so in the source); capping group not stated
[4]
  EC50: 430 pM

B4: cold (unlabeled) A02 Adnectin (designed binder)
chain: EVVAATPTSLLISWSYDGPIDRYYRITYGETGGNSPVQEFTVPPDQKTATISGLKPGVDYTITVYAVRLEEAHYNREFPISINYRT
[5]
  PET uptake of ^64Cu-A02 in hPD-L1(+) L2987 relative to hPD-L1(-) HT-29 xenografts when co-injected with 3 mg/kg unlabeled A02 Adnectin: 1.04 fold

B5: ATI-1420D05 (designed binder)
chain: MGVSDVPRDLEVVAATPTSLLISWTAYYSTIKYRITYGETGGNSPVQEFTVGPKHHATISGLKPGVDYTITVYAYNTKPGYHAHQISINYRTEIDKPSQHHHHHH
notes: 10Fn3 Adnectin
[6]
  Kd: 9500 pM

B6: ^64Cu-A02-NODAGA (designed binder)
chain: GVSDVPRDLEVVAATPTSLLISWSYDGPIDRYYRITYGETGGNSPVQEFTVPPDQKTATISGLKPGVDYTITVYAVRLEEAHYNREFPISINYRTPC
modifications: C-terminal cysteine (of the added PC) linked to maleimide-NODAGA chelating ^64Cu
[5]
  PET radiotracer uptake in hPD-L1(+) L2987 xenografts relative to hPD-L1(-) HT-29 xenografts in mice (final 10 minutes of the 2 h time-activity curve): 3.05 fold

B7: ^18F-A02 Adnectin ([^18F]-A02-4PEG-DBCO-FPPEGA) (designed binder)
chain: B6 chain
modifications: C-terminal cysteine linked to Maleamide-DBCO-FFP(18F) (maleimide-PEG4-DBCO clicked with [^18F]-FPPEGA)
[5]
  maximum radiotracer uptake ratio in hPD-L1(+) L2987 xenografts vs. hPD-L1(-) HT-29 xenografts (PET, mice): 3.53 ratio

B8: ATI-966 (designed binder)
chain: MGVSDVPRDLEVVAATPTSLLISWHRFSSIMAYYRITYGETGGNSPVQEFTVAGSVNTATISGLKPGVDYTITVYAVTIHNVSFPISINYRTEIDKPSQHHHHHH
notes: 10Fn3 Adnectin
[7]
  EC50: 28 pM
[2]
  Kd: 28 pM
  koff: 6.9e-05 s⁻¹
  kon: 2.5e+06 M⁻¹ s⁻¹
Cyno PD-L1
  Kd: 38 pM

B9: ATI-968 (designed binder)
chain: MGVSDVPRDLEVVAATPTSLLISWIAPFYNVIYYRITYGETGGNSPVQEFTVPGTGYTATISGLKPGVDYTITVYAVTDGASIASYAFPISINYRTEIDKPSQHHHHHH
notes: 10Fn3 Adnectin; also called ADX_1760_C01
[7]
  EC50: 56 pM
[2]
  Kd: 160 pM
  koff: 0.00012 s⁻¹
  kon: 750000 M⁻¹ s⁻¹
Cyno PD-L1
  Kd: 110 pM

B10: ADX_5417_E01 (designed binder)
chain: MGVSDVPRDLEVVAATPTSLLISWRAQLSPSFYYRITYGETGGNSPVQEFTVPNDVMTATISGLKPGVDYTITVYAVTTHGVYFYSPISINYRTPCHHHHHH
[8]
  Kd: < 100 pM
[2]
  Kd: 13 pM
  koff: 0.00026 s⁻¹
  kon: 2e+07 M⁻¹ s⁻¹

B11: ATI-1421E04 (designed binder)
chain: MGVSDVPRDLEVVAATPTSLLISWSYNGPIEYRITYGETGGNSPVQEFTVPDQQATISGLKPGVDYTITVYALEEAHYSRQSISINYRTEIDKPSQHHHHHH
notes: 10Fn3 Adnectin; also called AT1-1421E04
[6]
  Kd: 5600 pM

B12: ATI-967 (designed binder)
chain: MGVSDVPRDLEVVAATPTSLLISWQGQLSPSFYYRITYGETGGNSPVQEFTVPVASGTATISGLKPGVDYTITVYAVTSHGIYFYAPISINYRTEIDKPSQHHHHHH
notes: 10Fn3 Adnectin; also called parent of ADX_5417_E01
[2]
  Kd: 32 pM
  koff: 6.7e-05 s⁻¹
  kon: 2.1e+06 M⁻¹ s⁻¹
Cyno PD-L1
  Kd: 60 pM

B13: ATI-964 (designed binder)
chain: MGVSDVPRDLEVVAATPTSLLISWSYDGSIERYYRITYGETGGNSPVQEFTVPPDQKTATISGLKPGVDYTITVYAVRLEEAHYYRESPISINYRTEIDKPSQHHHHHH
notes: 10Fn3 Adnectin; also called parent of ADX_5322_A02
[7]
  EC50: 41 pM
[2]
  Kd: 210 pM
  koff: 7.7e-05 s⁻¹
  kon: 360000 M⁻¹ s⁻¹
Cyno PD-L1
  Kd: 140 pM

B14: ATI-1420B09 (designed binder)
chain: MGVSDVPRDLEVVAATPTSLLISWHKFSSLMSYRITYGETGGNSPVQEFTVGSVNATISGLKPGVDYTITVYAIHNVGFISINYRTEIDKPSQHHHHHH
notes: 10Fn3 Adnectin
[6]
  Kd: 2500 pM

B15: ATI-965 (designed binder)
chain: MGVSDVPRDLEVVAATPTSLLISWTAYDSVDKYYRITYGETGGNSPVQEFTVGPRHHTATISGLKPGVDYTITVYAVYHTEPGYHAHMPISINYRTEIDKPSQHHHHHH
notes: 10Fn3 Adnectin
[7]
  EC50: 210 pM
[2]
  Kd: 710 pM
  koff: 0.00033 s⁻¹
  kon: 460000 M⁻¹ s⁻¹
Cyno PD-L1
  Kd: 800 pM
